In the assay the target is SARS-CoV-2 nsp12 (SARS-CoV-2, UniProt P0DTD1). Nature of the assay: cryo-EM structure.

Consider 2 molecules from paper PMC10843261 (Molecular cell, 2023).

B1: SARS-CoV-2 nsp9 (natural protein)
chain: NNELSPVALRQMSCAAGTTQTACTDDNALAYYNTTKGGRFVLALLSDLQDLKWARFPKSDGTGTIYTELEPPCRFVTDTPKGPKVKYLYFIKGLNNLNRGMVLGSLAATVRLQ
Consider B1, for which the binding result is reported as “binds”.

B2: RNAylated-nsp9 (20mer RNA) (natural protein)
chain: NNELSPVALRQMSCAAGTTQTACTDDNALAYYNTTKGGRFVLALLSDLQDLKWARFPKSDGTGTIYTELEPPCRFVTDTPKGPKVKYLYFIKGLNNLNRGMVLGSLAATVRLQ
For the molecule B2, the binding result is given as “binds”.
